In IntAct's records for PubMed 29039417:

B1: BBSome complex member BBS4 (Homo sapiens), Q96RK4 (parent)
chain: MAEERVATRTQFPVSTESQKPRQKKAPEFPILEKQNWLIHLHYIRKDYEACKAVIKEQLQETQGLCEYAIYVQALIFRLEGNIQESLELFQTCAVLSPQSADNLKQVARSLFLLGKHKAAIEVYNEAAKLNQKDWEISHNLGVCYIYLKQFNKAQDQLHNALNLNRHDLTYIMLGKIHLLEGDLDKAIEVYKKAVEFSPENTELLTTLGLLYLQLGIYQKAFEHLGNALTYDPTNYKAILAAGSMMQTHGDFDVALTKYRVVACAVPESPPLWNNIGMCFFGKKKYVAAISCLKRANYLAPFDWKILYNLGLVHLTMQQYASAFHFLSAAINFQPKMGELYMLLAVALTNLEDIENAKRAYAEAVHLDKCNPLVNLNYAVLLYNQGEKKNALAQYQEMEKKVSLLKDNSSLEFDSEMVEMAQKLGAALQVGEALVWTKPVKDPKSKHQTTSTSKPASFQQPLGSNQALGQAMSSAAAYRTLPSGAGGTSQFTKPPSLPLEPEPAVESSPTETSEQIREK
partner: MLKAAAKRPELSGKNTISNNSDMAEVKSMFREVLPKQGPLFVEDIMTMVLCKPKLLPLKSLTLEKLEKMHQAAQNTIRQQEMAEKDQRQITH

Variants of: B1
Conditions: with bbip1_human BBIP1, A8MTZ0

Row | effect of a mutation on the interaction | Variant
1 | with no effect | A329K
2 | with no effect | A329E
3 | with no effect | L293A
4 | with no effect | L293K
5 | with no effect | L293E
6 | with no effect | K336A
7 | with no effect | K336E
8 | with no effect | P335E
9 | disrupting interaction strength | P335T
10 | with no effect | P335A
11 | with no effect | P335K
12 | with no effect | L340A
13 | with no effect | L340E
14 | with no effect | G338K
15 | disrupting interaction strength | G338E
16 | disrupting interaction strength | G338R
17 | with no effect | G338A
18 | with no effect | F333A
19 | with no effect | F333E
20 | with no effect | F333K
21 | disrupting interaction strength | Q334D
22 | with no effect | Q334E
23 | with no effect | Q334A
24 | with no effect | Q334K
25 | with no effect | K305A

Row | effect of a mutation on the interaction | Variant
26 | with no effect | K305E
27 | with no effect | Y308A
28 | with no effect | Y308K
29 | with no effect | Y308E
30 | with no effect | Y298E
31 | with no effect | Y298A
32 | with no effect | Y298K
33 | with no effect | A321E
34 | with no effect | A321K
35 | with no effect | V313K
36 | with no effect | V313E
37 | with no effect | V313A
38 | with no effect | Y320A
39 | disrupting interaction strength | Y320C
40 | with no effect | Y320K
41 | with no effect | Y320E
42 | with no effect | N309E
43 | disrupting interaction strength | N309D
44 | with no effect | N309A
45 | with no effect | N309K
46 | disrupting interaction strength | L327R
47 | with no effect | L327E
48 | with no effect | L327K
49 | disrupting interaction strength | L327T
50 | disrupting interaction strength | L327H

Row | effect of a mutation on the interaction | Variant
51 | with no effect | L327A
52 | disrupting interaction strength | L312T
53 | with no effect | L312A
54 | with no effect | L312E
55 | disrupting interaction strength | L312H
56 | disrupting interaction strength | L312P
57 | with no effect | L312K
58 | with no effect | L315K
59 | disrupting interaction strength | L315S
60 | with no effect | L315A
61 | with no effect | L315E
62 | disrupting interaction strength | I331F
63 | with no effect | I331A
64 | with no effect | I331E
65 | with no effect | I331K
66 | disrupting interaction strength | A296V
67 | with no effect | A296K
68 | with no effect | A296E
69 | disrupting interaction strength | P301S
70 | disrupting interaction strength | P301L
71 | with no effect | P301K
72 | with no effect | P301E
73 | with no effect | P301A
74 | with no effect | T316A
75 | with no effect | T316K

Row | effect of a mutation on the interaction | Variant
76 | with no effect | T316E
77 | with no effect | M317A
78 | with no effect | M317E
79 | with no effect | M317K
80 | with no effect | H314E
81 | with no effect | H314K
82 | with no effect | H314A
83 | disrupting interaction strength | H314P
84 | with no effect | N332E
85 | with no effect | N332A
86 | disrupting interaction strength | N332Y
87 | disrupting interaction strength | N332I
88 | with no effect | N332K
89 | disrupting interaction strength | N332F
90 | with no effect | M337K
91 | with no effect | M337A
92 | with no effect | M337E
93 | with no effect | N297E
94 | with no effect | N297A
95 | with no effect | N297K
96 | with no effect | S328A
97 | with no effect | S328K
98 | with no effect | S328E
99 | disrupting interaction strength | A323V
100 | with no effect | A323E

Row | effect of a mutation on the interaction | Variant
101 | with no effect | A323K
102 | disrupting interaction strength | A323T
103 | with no effect | E339K
104 | with no effect | E339A
105 | with no effect | D303E
106 | with no effect | D303A
107 | with no effect | D303K
108 | with no effect | Q319E
109 | with no effect | Q319K
110 | with no effect | Q319A
111 | with no effect | C292K
112 | disrupting interaction strength | C292R
113 | with no effect | L307A
114 | with no effect | L307K
115 | disrupting interaction strength | L307P
116 | with no effect | L307E
117 | with no effect | L299E
118 | with no effect | L299K
119 | with no effect | L299A
120 | disrupting interaction strength | W304R
121 | with no effect | W304E
122 | with no effect | W304K
123 | with no effect | W304A
124 | with no effect | I306E
125 | with no effect | I306A

Row | effect of a mutation on the interaction | Variant
126 | with no effect | I306K
127 | disrupting interaction strength | I306T
128 | disrupting interaction strength | I306P
129 | disrupting interaction strength | F324P
130 | with no effect | F324K
131 | with no effect | F324A
132 | with no effect | F324E
133 | with no effect | L310A
134 | with no effect | L310K
135 | disrupting interaction strength | L310W
136 | with no effect | L310E
137 | disrupting interaction strength | L310S
138 | with no effect | G311K
139 | disrupting interaction strength | G311D
140 | with no effect | G311A
141 | with no effect | G311E
142 | with no effect | A330E
143 | with no effect | A330K
144 | disrupting interaction strength | A330F
145 | disrupting interaction strength | A330V
146 | with no effect | A300E
147 | with no effect | A300K
148 | with no effect | F302K
149 | with no effect | F302A
150 | with no effect | F302E

Row | effect of a mutation on the interaction | Variant
151 | with no effect | R295E
152 | with no effect | R295K
153 | with no effect | R295A
154 | with no effect | K294E
155 | with no effect | K294A
156 | with no effect | H325E
157 | with no effect | H325A
158 | with no effect | H325K
159 | with no effect | Q318A
160 | with no effect | Q318E
161 | with no effect | Q318K
162 | disrupting interaction strength | F326L
163 | with no effect | F326E
164 | with no effect | F326A
165 | with no effect | F326K
166 | disrupting interaction strength | F326S
167 | with no effect | S322A
168 | with no effect | S322K
169 | with no effect | S322E
